# Test: soluble on expression in E. coli; label from the status in PepcDB or PDB records
row,Sequence,soluble on expression in E. coli
1,MGSDKIHHHHHHMRVIELEDLDHIREAIVILKGLEVEGANKPGEKLGFKKGKNLMSIFTCKEMDRFIRDVQERKNFSLETNAYFFELHSKRFVSLRYLPKKSLLFVNDLTEERTLSEAKLDFVTAVSHELFTPLSASKANVFLLKDIENDPEKLEILGKVERSLDRMETIIRQLKVLTMIQLRLYELKMEHIPVEEVVHMVLEELREKIESKKIKVNVFVDVETIETDRFVFHTILKNLVSNAVKYSYPDSVVEISITGERLSVKDQGIGIKEEEKSRIFERFYRGSEALKMAPGSGLGLSIVKHLCDTIGYRLEVNSQWLVGSEFIVHFK,not soluble
2,MYATFSALKKYGYAELSIQRIASELNFSKSTLYHHFSDKDDLLLSFFNFLLDELEQFCKSSSTNEPKKELLDFVDVLLDEGITQKEQSAKGEILAAYIELRSQAIHDTKYRERITRTDKRFVKQIAVIIDAGIDKGVFQPVEPEETAEFILAILNGILMQGSTRKRAPFQQLRQNLIEYIQTELFVESATRS,not soluble
3,GHMASGLTIYFKKPDSWGTPHLYYYDTNPKVDEPTWSEAPEMEHYEGDWYTHTIEGVESVRLLFKDRGTNQWPGPGEPGFFRDQDGWFDGEWHVDRPG,soluble
4,MNIKSLQLFIHLCESKSFAKTAAAMHISPSALSRQIQKLEEETNQQLFVRDNRSVELTTQGKKLMPVALKILSEWQQYQNHIKGTEGELKGEIRLFCSVTASYSHLPELISDFRLQHPFIEFKLSTGDPAQAIDKILADEADIAISAKSEQMPNKIAFET,not soluble
5,MSLANDDLQQRLDKGMYGTPLVNPEEQHKYMGTFRERCRLSMTVAEMKDAQNQKHLLEELAKHPEVTVLLNGEISSDLQSTYIKLLNQHGANFKIVNNFVENNPDSLGLLLAEKHAVDEPVIDVTEKYPQATETPKEEPTAKKSFWQKLFHSEGHHHHHH,soluble
6,MSDTLRPYKNLFPGIGQRVMIDTSSVVIGDVRLADDVGIWPLVVIRGDVNYVAIGARTNIQDGSVLHVTHKSSSNPHGNPLIIGEDVTVGHKVMLHGCTIGNRVLVGMGSIVLDGAIIEDDVMIGAGSLVPQHKRLESGYLYLGSPVKQIRPLSDAERSGLQYSANNYVKWKDDYLSQDNHIQP,not soluble
7,MGSDKIHHHHHHMINYHPDQHLLSLHAKGELPLSMSIAISAHAELCPHCQQQLDQMTIALSEQQFESAVKTQSVDTNDNHQLDALLEQLLNSTLDTLEIEQASTIDTIEDNSVSIKGQHYPLPKVFRKQINASWQGIGKVSRLRLDTGEPQARASLLHIAANGEIPEHTHKGAELTLLLAGEFSDCYNTYKPGDFMLLDKEHQHSPKTLEGCLCYTIVDAPLYFTKGFSKLLNPIGDLLY,not soluble
8,MSLKTVEEQAKNIYQLLEMVYGTSPWTLEQVLIDIRRDQTDYFLLYDHDKLLGFLAIQDLAGEVEMTQIAILPSHQELGLASQLMTHLDSIESDIFLEVRESNHRAQGLYQKFGFKFIGKRPDYYRNPIETALLMKREGKHDREGHHHHHH,soluble
9,ITTKRGEKGKVKINVKAGFDWNTPVKVPEYASGYDWARLANEARLGRYDSPIYTPEELEIIRSGLDTDLYPNIDWRDLMLKSGAPRYYANISFSGGSDNVRYYVSGQYTSEQGRYKTFSSENKYNTNTTYERYNYRANVDMNITKTTVLKVSVGGWLVNRTTPTRSTGDIWEDFAKFTPLSTPRKWSTGQWPRVDGQDTPEYHMTQRGYHTKWESKVETSVKLEQDLKFITPGLKFEGVFAFDTYNENIIKREKKEEVWEAQKYRDENGKLILKRVVNRSPMNQNKEVRGDKRYYFQASLDYNRLFAHAHRVGVFGMVYQEEKTDVNFDSSDLIGSIPRRNLAYSGRFTYAYKDKYLAEFNWGCTGSENFEHGKQFGFFPAVSAGYVISEEAFMKKALPWIDQFKIRASYGEVGNDVLDGRRFPYVSLIDTDDGGSYSFGEFGTNRVQAYRIRTLGTPNLTWEIAKKYDVGVDFSFFNGKISGALDWFLDKRDDIFMQRKHMPLTTGLADQTPMANVGKMKSYGWEGNIGFTQSIGQVNLQLRANFTYQTTDIIDKDEAANELWYKMDKGFQLNQSRGLIALGLFKDQDEIDRSPKQTSNRPILPGDIKYKDVNGDGVINDDDIVPLGYREVPGLQYGVGLSANWRNWNLSVLFQGTGK,not soluble
10,MAGDPMDTISRISSYVAGKVVKYPGLKYIAGVAISYAIHKFEESGLWRSVPIDKYIQLPRELEHHHHHH,not soluble
11,MGSDKIHHHHHHMSDSQTVSAAVAKLYNTYPFPPEALLDEPPPGYNWRWNWLAAHNFCTGQKPQKQDIRILDAGCGTGVSTEYLVHLNPQASVVGIDLSTGALDVAKERCQRSGANRVEFHHLSLFDVEQLPGEFDLINCVGVLHHTSDPIRGIQALAQKLAPGGLMHIFVYGELGRWEIQLMQKAIALLQGDKKGDYRDGVQVGRQIFASLPENNRIVKYEKQRWSLENHKDEHFADMYVHPQEIDYNIETLFELIDASGLEFIGFSNPSFWDLERLLSKAPELVERAKELSDRQLYRLIELLDPEVTHYEFFLGRPPLVKTDWSDDKALLAAIPELNPCIEGFPSQCFFNYNYQIVNLSEPEFEFMQKCDANSTVAEILADVQLGLDEVRKLLQQQLILLAPA,not soluble
12,MSLKSQNTLWKIRKIWAKFQRYTISYKQEIIGTFNPQAQMILMNHQSALDIIALEELYPKNLCWIAKKELGEIPIFKVAMKKPKLLCIDRKNPRDLVRVLKEAKERISEDRVLAIFPEGTRSKNEKMLKFQSGAKILSEKLNLKVQPILIVDSAKILDTKSFSASSGVLKIICMDLVDTNDEKWLENTRKKMQELLDQERAKLCEGHHHHHH,not soluble
13,GKPSWLGGGSTQPAQTIPWGIERVKAPSVWSITDGSVSVIQVAVLDTGVDYDHPDLAANIAWCVSTLRGKVSTKLRDCADQNGHGTHVIGTIAALNNDIGVVGVAPGVQIYSVRVLDARGSGSYSDIAIGIEQAILGPDGVADKDGDGIIAGDPDDDAAEVISMSLGGPADDSYLYDMIIQAYNAGIVIVAASGNEGAPSPSYPAAYPEVIAVGAIDSNDNIASFSNRQPEVSAPGVDILSTYPDDSYETLMGTAMATPHVSGVVALIQAAYYQKYGKILPVGTFDDISKNTVRGILHITADDLGPTGWDADYGYGVVRAALAVQAALG,soluble
14,MGSDKIHHHHHHMSEFDVAVIGAGPAGSSAAIRLAQNGMNVLLVERGDPPGTKNVSGAVLWGNELAKVVPDWERSAPVERYVTRKEVAFLTEKSKIAISFSSEELQNSKSGKIIVRGKFDQWLAKKAKDAGAMLVTGVTVDRLAIDNGKVIGIQQDNDVITADAVVVAEGANPRVLINSGLRPKLSDRDVALGIKETIKLPENVINERFNVDSKSGFASEFVLGFLDDGLLSGGFLYTNKDTVSLGIVASLDRLRANGVTHSYDIMGKFEEHPFIKNLIKDGIPDEYAAHLVPEGGISSMPKLYGNGYLVAGDAAAFTFSNGMVLQGINYAITSGILAADTIIENRNNINENTLAKYVDKLRESYVLSDLYNFNGIQNVTWSDFVQKSLPTLAESVMMSLFDEKGMPKKHLRQIVTDAMKSGHMKYSDLITNGYRVIKRM,not soluble
15,MWCLPLSSGNDAHMTTHIQRSALLPYPAGFLYDLVNDVARYPEFLPWCSSATVLDASESQMRASLEIAKGGLSQKFMTRNTLVPGESIVMDLVEGPFEQFHGVWTFKPLGEKACKISLDLSFDYAGTIVRATLGPLFNQAANTLVDAFCQRAKELHGLEHHHHHH,not soluble
16,MAAFEAHDYALAERQAQALLAHPATASGARFMLGYVYAFMDRFDEARASFQALQQQAQKSGDHTAEHRALHQVGMVERMAGNWDAARRCFLEERELLASLPEDPLAASANAYEVATVALHFGDLAGARQEYEKSLVYAQQADDQVAIACAFRGLGDLAQQEKNLLEAQQHWLRARDIFAELEDSEAVNELMTRLNGLEHHHHHH,not soluble
17,MGSDKIHHHHHHMKRILVSLYEKEKYLDILRELHEKGWEIWASSGTAKFLKSNGIEANDVSTITGFENLLGGLVKTLHPEIFAGILGPEPRWDVVFVDLYPPPDIDIGGVALLRAAAKNWKKVKPAFDMETLKLAIEIDDEETRKYLAGMTFAFTSVYDSIRANQFVEGISLAFKREDLQLRYGENPHEKAFVYGKPAFEILHEGKTISFNNILDAENAWFMAKNLPRMGAVVVKHQSPCGAAIGEDKVEIVKKAIEADDESSFGGILAVNFEMDEEVAKSLKKYLEVIVAPSFTQEAIEVLSKKKVRLLKPGDYASWAGKMAFGSLVLSERKYPEGNFELVVGEPLSEKELEDLEFAYRVVEGAKSNAVLIAKDGVTVGIGSGQPSRKRAAWIATVMAGEKAKGAVAASDAFFPFPDSLEILAQAGVKAVVAPLGSIRDEEVIEKARELGITFYKAPSRVFRH,soluble
18,MDQNRGSDVGFAVPMLPVNYASATQKMSTLASTSSAGASSSTGSSNQQQQQAAAVIRRRRFSTAKIQPTRIKKVMQSDEDIGRMVQSVPVSIGRAMEHFAEKFLQAAAEATQFTSSKTLNPQHMKQAVLNTPHFSFLESVFKDVALPQQASELNTARTGMTLRGQQMLQEQQNSDFASAILANAQMQMMQMDQQALKQEDGTISPYLVDPQSPAAPLPLYLQGIPSNYPVVQELTATVPLSPSTPTTQLVNGMLGMLKYSKKDSEGQRLTGLKRASTDGDGEDRPKRGRPKKLKPEKCIDDDLYEEASRNIAKEDKDRELMPPPALPIGRP,not soluble
19,EIQLQQSGPELVKPGASVKVSCKASGYSFTDYFIYWVKQSHGKSLEWIGDIDPYNGDTSYNQKFRDKATLTVDQSSTTAFMHLNSLTSEDSAVYFCARGLRFWGQGTLVTVSAAKTTPPSVYPLAPGSAAQTNSMVTLGCLVKGYFPEPVTVTWNSGSLSSGVHTFPAVLQSDLYTLSSSVTVPSSTWPSETVTCNVAHPASSTKVDKKIVPRDCG,soluble
20,MRLYMEMTNAQRLILSNQYFLMSQLDPNNANKYKRLQTIVERGYELHMRELNREFGCLPETECREIIDIMEMYHAMQESNRMLDDAARKDVDQRRLTFLGFDMATEAQLVNYVRFLVDSEGLYPQFDKGEHHFNSQMPMLAKYRRMLTTWRNCPRQYHLSGNELRQIMNA,not soluble
21,MARDRNLFKMLVNRLLDRLARLPVGAELGSEGELAAELQASRTTVRAVLTHLAEAGLLSWEGRRKVVLRAPSPSDRFDEGETRPRQELVEEPFLAWVLQGDLPPGTLLHESDLARRLGVPVATVREFLIRFEPFGLIEKQPNRHWVLKGFTRAFAEEMFAVREMFERHALRGLLAATAPGGPLRADLESLRAEHEALSAGPEEELTAFPALDARFHRLLCRAAHNRFILDFSRTISIIVHFHYRWNKRDELRRNRAALNEHLAIVEAVLAGDAPRAAAALDAHLATAYRTLMTSVTWADA,not soluble
22,MGSDKIHHHHHHMESEIKTRGFAIDVSRDKLTVAKAELVITQEKREVEVNEVREFKYDNEGIEELIKFLGEYKEGIMESTGPYFFYLHEELTEKGYKVTLINPLHLKEVFGKKTDKLDAQRLAKAFILGAVKGSYIPTGEIRELRELTRYRESLMRKITQVKNEIRKFLEMAGYKIEPFDKRGMALLEKLSRGEGLSKEERDELKEKLGRSLNDAEKLALKQLVDLLKSLEAMVKEVEDMIISKIPQPVVELSRELV,not soluble
23,TQEDVVVTLSHQGYVKYQPLSEYEAQRRGGKGKSAARIKEEDFIDRLLVANTHDHILCFSSRGRVYSMKVYQLPEATRGARGRPIVNLLPLEQDERITAILPVTEFEEGVKVFMATANGTVKKTVLTEFNRLRTAGKVAIKLVDGDELIGVDLTSGEDEVMLFSAEGKVVRFKESSVRAMGCNTTGVRGIRLGEGDKVVSLIVPRGDGAILTATQNGYGKRTAVAEYPTKSRATKGVISIKVTERNGLVVGAVQVDDCDQIMMITDAGTLVRTRVSEISIVGRNTQGVILIRTAEDENVVGLQRVAE,soluble
